The values below are quoted from earlier work in PMC4114557.

Where two headings read alike, the source gives them in different places.

In data set [1] the target is Colicin E3 R-domain (Escherichia coli) (UniProt P00646).
Data set [2] has as its target Colicin E9 R-domain (Escherichia coli) (UniProt P09883).
Data set [3] deals with BtuB (Escherichia coli) (UniProt P06129).
The target is the same in data set [4]. The source holds these as a separate data set.
The target in data set [5] is OmpF (Escherichia coli) (UniProt P02931).
Chain of UniProt P02931 (P02931 23-362): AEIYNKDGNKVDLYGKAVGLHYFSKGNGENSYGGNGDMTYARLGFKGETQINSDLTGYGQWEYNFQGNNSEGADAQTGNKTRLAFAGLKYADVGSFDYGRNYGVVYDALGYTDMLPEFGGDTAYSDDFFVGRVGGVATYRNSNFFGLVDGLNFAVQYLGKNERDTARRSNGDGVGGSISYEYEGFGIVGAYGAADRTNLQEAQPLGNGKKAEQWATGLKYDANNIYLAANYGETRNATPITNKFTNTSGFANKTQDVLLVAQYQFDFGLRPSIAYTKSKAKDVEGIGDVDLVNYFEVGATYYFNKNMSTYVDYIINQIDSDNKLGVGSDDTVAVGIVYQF
The target is the same in data set [6]. This is another data set of the same source.
The target of data set [7] is BtuB (Escherichia coli) (UniProt P06129). This is another data set of the same source.
The target of data set [8] is OmpF (Escherichia coli) (UniProt P02931). This is another data set of the same source.

Broadly, the Kd is the free concentration of one partner at which half of the binding sites on the other are occupied at equilibrium, for simple one-to-one binding. For BtuB (from UniProt P06129), the Kd in data set [1] and in data set [2] was 1 nM each time.

Regarding “Colicin E2 R-domain (from UniProt P04419)”, the Kd in the data set with BtuB (Escherichia coli) [3] is 1 nM. “Colicin E3 R-domain (from UniProt P00646)”: the Kd in the data set with BtuB (Escherichia coli) [4] was 1 nM.

With Colicin E9 OBS1 (from UniProt P09883), the Kd in the data set with OmpF (Escherichia coli) [5] was 2000 nM.

For the substance Colicin E9 OBS2 (from UniProt P09883), in the data set with OmpF (Escherichia coli) [6], the Kd was 24000 nM. Turning to “Colicin E9 R-domain (from UniProt P09883)”, the Kd with BtuB (Escherichia coli) [7] is 1 nM. Regarding “Colicin N T-domain (from UniProt P08083)”, the Kd in the data set with OmpF (Escherichia coli) [8] is 3000 nM.
